No end group written: not given here.
B1: PGA-Paclitaxel-E-[c(RGDfk)2] conjugate (SEQ ID NO:18) having a 2.6 mol % PTX and 5 mol % E-[c(RGDfk)2] loading (peptide)
peptide: RGDFKERGDFK
modifications: not fully specified (residues 4, 5, 10, 11, bridges); also: two cyclic RGDfk rings joined through Glu spacer, paclitaxel ester-linked to PGA, 2.6 mol %
B2: PGA-Paclitaxel-E-[c(RGDfk)2] conjugate (SEQ ID NO:18) having a 5.5 mol % PTX and 3.9 mol % E-[c(RGDfk)2] loading (peptide)
peptide: RGDFKERGDFK
modifications: not fully specified (residues 4, 5, 10, 11, bridges); also: two cyclic RGDfk rings joined through Glu spacer, paclitaxel ester-linked to PGA, 5.5 mol %

Biological target: αvβ3 integrin receptor on human umbilical vein endothelial cells (HUVEC) (human, UniProt P06756 31-1048; P05106 27-788)
Sequence (P06756 31-1048, chain 1 of 2): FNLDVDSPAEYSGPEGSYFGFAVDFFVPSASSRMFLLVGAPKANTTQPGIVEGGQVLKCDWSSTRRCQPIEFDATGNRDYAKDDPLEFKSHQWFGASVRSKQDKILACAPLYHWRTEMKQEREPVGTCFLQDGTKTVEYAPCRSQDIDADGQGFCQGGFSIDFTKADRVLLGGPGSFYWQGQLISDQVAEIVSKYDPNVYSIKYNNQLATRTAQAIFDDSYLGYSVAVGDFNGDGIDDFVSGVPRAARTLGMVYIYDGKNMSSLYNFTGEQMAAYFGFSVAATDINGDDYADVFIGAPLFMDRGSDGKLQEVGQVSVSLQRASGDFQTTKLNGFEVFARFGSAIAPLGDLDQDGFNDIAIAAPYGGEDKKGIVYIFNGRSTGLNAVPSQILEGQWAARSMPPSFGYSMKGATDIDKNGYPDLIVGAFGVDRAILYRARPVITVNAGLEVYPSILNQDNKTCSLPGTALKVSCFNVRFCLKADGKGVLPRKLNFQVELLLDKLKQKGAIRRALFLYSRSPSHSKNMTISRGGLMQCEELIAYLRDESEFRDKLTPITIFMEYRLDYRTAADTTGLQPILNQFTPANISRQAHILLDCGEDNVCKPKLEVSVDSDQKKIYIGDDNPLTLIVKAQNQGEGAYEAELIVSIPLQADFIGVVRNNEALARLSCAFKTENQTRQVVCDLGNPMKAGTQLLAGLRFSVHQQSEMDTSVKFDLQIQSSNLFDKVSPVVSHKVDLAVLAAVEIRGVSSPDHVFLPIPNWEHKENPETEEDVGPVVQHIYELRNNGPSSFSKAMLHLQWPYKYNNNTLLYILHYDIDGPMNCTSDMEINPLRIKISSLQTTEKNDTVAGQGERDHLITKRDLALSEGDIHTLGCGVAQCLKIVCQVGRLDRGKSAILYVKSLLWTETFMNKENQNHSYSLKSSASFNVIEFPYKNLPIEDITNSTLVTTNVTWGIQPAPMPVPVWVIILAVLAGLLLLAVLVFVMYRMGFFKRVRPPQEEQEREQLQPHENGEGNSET
Sequence (P05106 27-788, chain 2 of 2): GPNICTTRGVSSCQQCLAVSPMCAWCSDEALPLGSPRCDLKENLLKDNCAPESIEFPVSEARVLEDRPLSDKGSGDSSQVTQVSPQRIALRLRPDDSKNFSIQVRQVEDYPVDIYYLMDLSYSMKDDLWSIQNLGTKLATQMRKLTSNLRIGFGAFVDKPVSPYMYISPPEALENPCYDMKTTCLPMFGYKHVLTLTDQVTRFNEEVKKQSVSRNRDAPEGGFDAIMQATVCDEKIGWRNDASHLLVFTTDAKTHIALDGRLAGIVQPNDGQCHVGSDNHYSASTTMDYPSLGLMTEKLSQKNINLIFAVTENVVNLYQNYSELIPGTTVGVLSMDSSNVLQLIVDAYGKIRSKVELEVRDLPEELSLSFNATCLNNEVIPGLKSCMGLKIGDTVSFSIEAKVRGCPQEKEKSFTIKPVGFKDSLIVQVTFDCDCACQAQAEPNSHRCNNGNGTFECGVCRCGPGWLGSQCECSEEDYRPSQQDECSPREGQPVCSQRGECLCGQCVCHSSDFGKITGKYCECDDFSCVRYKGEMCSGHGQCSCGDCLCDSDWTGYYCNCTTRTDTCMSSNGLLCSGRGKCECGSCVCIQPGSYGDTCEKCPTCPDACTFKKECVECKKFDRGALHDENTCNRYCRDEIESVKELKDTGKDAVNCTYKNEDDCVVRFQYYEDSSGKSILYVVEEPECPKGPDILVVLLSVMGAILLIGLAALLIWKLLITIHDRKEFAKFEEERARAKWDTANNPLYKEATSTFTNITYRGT
Assay: cell-based or functional assay

| Binder | inhibition of HUVEC adhesion to fibrinogen |
| --- | --- |
| B1 | ~60% |
| B2 | ~60% |

Reference: US20140079638A1 (RAMOT AT TEL AVIV UNIVERSITY, published 2014)
